Measured values: patent US20180291110A1 (Hoffmann-La Roche, published 2018)

B1: 4/94 SEQ ID NO 196 / SEQ ID NO 201 (antibody, V domains shown)
VH: QVQLVQSGAEVKKPGASVKVSCKASGFNIKDTYIHWVIQAPGQGLEWMGRIDPANGDTKSDPKFQGRVTITADTSTSTVYMELSSLRSEDTAVYYCVRDYLYPYYFDFWGQGTTVTVSS
VL: KIQMTQSPSSLSASVGDRVTITCRASESVDTYVSWYQQKPGKAPKLLIYGASNRYTGVPSRFSGSGSGTDFTLTISSLQPEDFADYYCGQTYNYPLTFGQGTKLEI
B2: 4/94 SEQ ID NO 195 / SEQ ID NO 201 (antibody, V domains shown)
VH: QVQLVQSGAEVKKPGASVKVSCKASGFNIKDTYIHWVIQAPGQGLEWMGRIDPANGDTKSAPKFQVRVTITADTSTSTVYMELSSLRSEDTAVYYCVRDYLYPYYFDFWGQGTTVTVSS
VL: KIQMTQSPSSLSASVGDRVTITCRASESVDTYVSWYQQKPGKAPKLLIYGASNRYTGVPSRFSGSGSGTDFTLTISSLQPEDFADYYCGQTYNYPLTFGQGTKLEI
B3: 4/94 SEQ ID NO 194 / SEQ ID NO 201 (antibody, V domains shown)
VH: QVQLVQSGAEVKKPGASVKVSCKASGFNIKDTYIHWVIQAPGQGLEWMGRIDPANGDTKSDPKFQVRVTITADTSTSTVYMELSSLRSEDTAVYYCVRDYLYPYYFDFWGQGTTVTVSS
VL: KIQMTQSPSSLSASVGDRVTITCRASESVDTYVSWYQQKPGKAPKLLIYGASNRYTGVPSRFSGSGSGTDFTLTISSLQPEDFADYYCGQTYNYPLTFGQGTKLEI
B4: 4/94 murine VH / murine VL (antibody, V domains shown)
VH: EVQLQQSGAVLVKPGASVKLSCPASGFNIKDTYIHWVIQRPEQGLEWIGRIDPANGDTKCDPKFQVKATITADTSSNTAYLQLSSLTSEDTAVYFCVRDYLYPYYFDFWGQGTTLTVSS
VL: KIVMTQSPKSMSMSVGERVTLNCRASESVDTYVSWYQQKPEQSPELLIYGASNRYTGVPDRFTGSGSATDFTLTISSVQAEDLADYYCGQTYNYPLTFGAGTKLELKR
notes: 0 (mu) read as the murine parental domains of clone 4/94; also called 0 (mu) x 0 (mu)
B5: 4/94 murine VH / SEQ ID NO 201 (antibody, V domains shown)
VH: EVQLQQSGAVLVKPGASVKLSCPASGFNIKDTYIHWVIQRPEQGLEWIGRIDPANGDTKCDPKFQVKATITADTSSNTAYLQLSSLTSEDTAVYFCVRDYLYPYYFDFWGQGTTLTVSS
VL: KIQMTQSPSSLSASVGDRVTITCRASESVDTYVSWYQQKPGKAPKLLIYGASNRYTGVPSRFSGSGSGTDFTLTISSLQPEDFADYYCGQTYNYPLTFGQGTKLEI
B6: 4/94 murine VH / SEQ ID NO 207 (antibody, V domains shown)
VH: EVQLQQSGAVLVKPGASVKLSCPASGFNIKDTYIHWVIQRPEQGLEWIGRIDPANGDTKCDPKFQVKATITADTSSNTAYLQLSSLTSEDTAVYFCVRDYLYPYYFDFWGQGTTLTVSS
VL: KIVLTQSPGTLSLSPGERATLSCRASESVDTYVSWYQQKPGQAPRLLIYGASNRYTGVPDRFSGSGSGTDFTLTISRLEPEDFADYYCGQTYNYPLTFGQGTKLEI
B7: 4/94 SEQ ID NO 196 / murine VL (antibody, V domains shown)
VH: QVQLVQSGAEVKKPGASVKVSCKASGFNIKDTYIHWVIQAPGQGLEWMGRIDPANGDTKSDPKFQGRVTITADTSTSTVYMELSSLRSEDTAVYYCVRDYLYPYYFDFWGQGTTVTVSS
VL: KIVMTQSPKSMSMSVGERVTLNCRASESVDTYVSWYQQKPEQSPELLIYGASNRYTGVPDRFTGSGSATDFTLTISSVQAEDLADYYCGQTYNYPLTFGAGTKLELKR
B8: 4/94 SEQ ID NO 198 / murine VL (antibody, V domains shown)
VH: QVQLVQSGAEVKKPGSSVKVSCKASGFNIKDTYIHWVIQRPGQGLEWMGRIDPANGDTKSDPKFQGRVTITADESTSTAYMELSSLRSEDTAVYYCVRDYLYPYYFDFWGQGTTVTVSS
VL: KIVMTQSPKSMSMSVGERVTLNCRASESVDTYVSWYQQKPEQSPELLIYGASNRYTGVPDRFTGSGSATDFTLTISSVQAEDLADYYCGQTYNYPLTFGAGTKLELKR
B9: 4/94 SEQ ID NO 194 / murine VL (antibody, V domains shown)
VH: QVQLVQSGAEVKKPGASVKVSCKASGFNIKDTYIHWVIQAPGQGLEWMGRIDPANGDTKSDPKFQVRVTITADTSTSTVYMELSSLRSEDTAVYYCVRDYLYPYYFDFWGQGTTVTVSS
VL: KIVMTQSPKSMSMSVGERVTLNCRASESVDTYVSWYQQKPEQSPELLIYGASNRYTGVPDRFTGSGSATDFTLTISSVQAEDLADYYCGQTYNYPLTFGAGTKLELKR
B10: 4/94 murine VH / SEQ ID NO 208 (antibody, V domains shown)
VH: EVQLQQSGAVLVKPGASVKLSCPASGFNIKDTYIHWVIQRPEQGLEWIGRIDPANGDTKCDPKFQVKATITADTSSNTAYLQLSSLTSEDTAVYFCVRDYLYPYYFDFWGQGTTLTVSS
VL: EIVLTQSPGTLSLSPGERATLSCRASESVDTYVSWYQQKPGQAPRLLIYGASNRYTGVPDRFSGSGSGTDFTLTISRLEPEDFADYYCGQTYNYPLTFGQGTKLEI
B11: 4/94 SEQ ID NO 195 / murine VL (antibody, V domains shown)
VH: QVQLVQSGAEVKKPGASVKVSCKASGFNIKDTYIHWVIQAPGQGLEWMGRIDPANGDTKSAPKFQVRVTITADTSTSTVYMELSSLRSEDTAVYYCVRDYLYPYYFDFWGQGTTVTVSS
VL: KIVMTQSPKSMSMSVGERVTLNCRASESVDTYVSWYQQKPEQSPELLIYGASNRYTGVPDRFTGSGSATDFTLTISSVQAEDLADYYCGQTYNYPLTFGAGTKLELKR
B12: 4/94 murine VH / SEQ ID NO 209 (antibody, V domains shown)
VH: EVQLQQSGAVLVKPGASVKLSCPASGFNIKDTYIHWVIQRPEQGLEWIGRIDPANGDTKCDPKFQVKATITADTSSNTAYLQLSSLTSEDTAVYFCVRDYLYPYYFDFWGQGTTLTVSS
VL: KIVLTQSPGTLSLSPGERATLSCRASESVDTYVSWYQQKPGQAPRLLIYGASNRYTGIPDRFSGSGSGTDFTLTISRLEPEDFADYYCGQTYNYPLTFGQGTKLEI
B13: 4/94 SEQ ID NO 197 / murine VL (antibody, V domains shown)
VH: QVQLVQSGAEVKKPGSSVKVSCKASGFNIKDTYIHWVIQAPGQGLEWMGRIDPANGDTKSDPKFQGRVTITADESTSTAYMELSSLRSEDTAVYYCVRDYLYPYYFDFWGQGTTVTVSS
VL: KIVMTQSPKSMSMSVGERVTLNCRASESVDTYVSWYQQKPEQSPELLIYGASNRYTGVPDRFTGSGSATDFTLTISSVQAEDLADYYCGQTYNYPLTFGAGTKLELKR
B14: Pertuzumab HC x Pertuzumab (Tras.L3) T94Y LC (antibody, V domains shown)
VH: EVQLVESGGGLVQPGGSLRLSCAASGFTFTDYTMDWVRQAPGKGLEWVADVNPNSGGSIYNQRFKGRFTLSVDRSKNTLYLQMNSLRAEDTAVYYCARNLGPSFYFDYWGQGTLVTVSS
VL: DIQMTQSPSSLSASVGDRVTITCKASQDVSIGVAWYQQKPGKAPKLLIYSASYRYTGVPSRFSGSGSGTDFTLTISSLQPEDFATYYCQQHYTYPPTFGQGTKVEIK
B15: Trastuzumab HC x Pertuzumab (Tras.L3) S30N LC (antibody, V domains shown)
VH: not shown
VL: DIQMTQSPSSLSASVGDRVTITCKASQDVNIGVAWYQQKPGKAPKLLIYSASYRYTGVPSRFSGSGSGTDFTLTISSLQPEDFATYYCQQHYTTPPTFGQGTKVEIK
B16: Trastuzumab HC x Pertuzumab (Tras.L3) K24R LC (antibody, V domains shown)
VH: not shown
VL: DIQMTQSPSSLSASVGDRVTITCRASQDVSIGVAWYQQKPGKAPKLLIYSASYRYTGVPSRFSGSGSGTDFTLTISSLQPEDFATYYCQQHYTTPPTFGQGTKVEIK
B17: Trastuzumab HC x Pertuzumab (Tras.L3) T56S LC (antibody, V domains shown)
VH: not shown
VL: DIQMTQSPSSLSASVGDRVTITCKASQDVSIGVAWYQQKPGKAPKLLIYSASYRYSGVPSRFSGSGSGTDFTLTISSLQPEDFATYYCQQHYTTPPTFGQGTKVEIK
B18: Trastuzumab HC x Pertuzumab (Tras.L3) Y53F LC (antibody, V domains shown)
VH: not shown
VL: DIQMTQSPSSLSASVGDRVTITCKASQDVSIGVAWYQQKPGKAPKLLIYSASFRYTGVPSRFSGSGSGTDFTLTISSLQPEDFATYYCQQHYTTPPTFGQGTKVEIK
B19: Trastuzumab HC x Pertuzumab (Tras.L3) G66R LC (antibody, V domains shown)
VH: not shown
VL: DIQMTQSPSSLSASVGDRVTITCKASQDVSIGVAWYQQKPGKAPKLLIYSASYRYTGVPSRFSGSRSGTDFTLTISSLQPEDFATYYCQQHYTTPPTFGQGTKVEIK
B20: Trastuzumab HC x Pertuzumab (Tras.L3) R54L LC (antibody, V domains shown)
VH: not shown
VL: DIQMTQSPSSLSASVGDRVTITCKASQDVSIGVAWYQQKPGKAPKLLIYSASYLYTGVPSRFSGSGSGTDFTLTISSLQPEDFATYYCQQHYTTPPTFGQGTKVEIK
B21: Trastuzumab HC x Pertuzumab (Tras.L3) G32A LC (antibody, V domains shown)
VH: not shown
VL: DIQMTQSPSSLSASVGDRVTITCKASQDVSIAVAWYQQKPGKAPKLLIYSASYRYTGVPSRFSGSGSGTDFTLTISSLQPEDFATYYCQQHYTTPPTFGQGTKVEIK
B22: Trastuzumab HC x Pertuzumab (Tras.L3) I31V LC (antibody, V domains shown)
VH: not shown
VL: DIQMTQSPSSLSASVGDRVTITCKASQDVSVGVAWYQQKPGKAPKLLIYSASYRYTGVPSRFSGSGSGTDFTLTISSLQPEDFATYYCQQHYTTPPTFGQGTKVEIK
B23: Trastuzumab HC x Pertuzumab (Tras.L3) I31T LC (antibody, V domains shown)
VH: not shown
VL: DIQMTQSPSSLSASVGDRVTITCKASQDVSTGVAWYQQKPGKAPKLLIYSASYRYTGVPSRFSGSGSGTDFTLTISSLQPEDFATYYCQQHYTTPPTFGQGTKVEIK
B24: Pertuzumab HC x Pertuzumab (Tras.L3) Y53F LC (antibody, V domains shown)
VH: EVQLVESGGGLVQPGGSLRLSCAASGFTFTDYTMDWVRQAPGKGLEWVADVNPNSGGSIYNQRFKGRFTLSVDRSKNTLYLQMNSLRAEDTAVYYCARNLGPSFYFDYWGQGTLVTVSS
VL: DIQMTQSPSSLSASVGDRVTITCKASQDVSIGVAWYQQKPGKAPKLLIYSASFRYTGVPSRFSGSGSGTDFTLTISSLQPEDFATYYCQQHYTTPPTFGQGTKVEIK

The binders below were run against T1, human transferrin receptor (recombinant, for surface plasmon resonance) (human, UniProt P02786 89-760) (assay: SPR).
T1 construct: also called huTfR; human transferrin receptor-biotinylated
T1 sequence (P02786 89-760 limits assumed): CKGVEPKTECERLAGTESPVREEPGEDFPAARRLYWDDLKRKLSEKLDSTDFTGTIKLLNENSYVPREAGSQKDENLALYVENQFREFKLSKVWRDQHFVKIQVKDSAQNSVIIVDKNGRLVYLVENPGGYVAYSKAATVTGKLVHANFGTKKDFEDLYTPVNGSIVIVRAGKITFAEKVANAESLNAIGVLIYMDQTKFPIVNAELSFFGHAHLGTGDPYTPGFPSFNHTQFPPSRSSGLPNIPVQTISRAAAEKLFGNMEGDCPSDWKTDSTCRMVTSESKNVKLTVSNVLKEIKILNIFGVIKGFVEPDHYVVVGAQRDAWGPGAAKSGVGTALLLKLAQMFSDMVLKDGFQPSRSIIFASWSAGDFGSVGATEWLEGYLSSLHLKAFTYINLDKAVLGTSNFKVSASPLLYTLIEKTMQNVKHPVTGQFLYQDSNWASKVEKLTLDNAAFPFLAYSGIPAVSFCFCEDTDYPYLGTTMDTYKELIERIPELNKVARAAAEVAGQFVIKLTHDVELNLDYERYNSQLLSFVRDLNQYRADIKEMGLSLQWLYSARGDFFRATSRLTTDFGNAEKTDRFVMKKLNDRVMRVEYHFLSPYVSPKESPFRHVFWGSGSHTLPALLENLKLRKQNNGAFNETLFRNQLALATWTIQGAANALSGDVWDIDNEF
A koff of 0.000386 s⁻¹ was found for B1 in this work. A koff of 0.000399 s⁻¹ was found for B2 in this work. A koff of 0.00041 s⁻¹ was found for B3 in this work. A koff of 0.000136 s⁻¹ was found for B4 in this work. A koff of 0.000137 s⁻¹ was found for B5 in this work. A koff of 0.000156 s⁻¹ was found for B6 in this work. A koff of 0.000339 s⁻¹ was found for B7 in this work. A koff of 0.000544 s⁻¹ was found for B8 in this work. A koff of 0.00037 s⁻¹ was found for B9 in this work. A koff of 0.000148 s⁻¹ was found for B10 in this work. A koff of 0.000364 s⁻¹ was found for B11 in this work. A koff of 0.000177 s⁻¹ was found for B12 in this work. A koff of 0.000542 s⁻¹ was found for B13 in this work.

The binders below were run against T2, Her2 ECD (amino acids 1 to 629 of matured HER2 with C-terminal avi-tag and His-tag) (human, UniProt P04626 23-652) (assay: SPR, Ab captured, Her2 analyte;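 note: ProteOn XPR36 SPR, rate constants from simultaneous fit of association and dissociation sensorgrams to a 1:1 Langmuir model, buffer-channel referenced, KD taken as koff/kon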).
T2 construct: also called purified Her2
A Kd of 0.782 nM, a koff of 0.00063 s⁻¹ and a kon of 805000 M⁻¹ s⁻¹ were found for B14 in this work. A Kd of 64.6 nM, a koff of 0.0256 s⁻¹ and a kon of 396000 M⁻¹ s⁻¹ were found for B15 in this work. A Kd of 66.8 nM, a koff of 0.0252 s⁻¹ and a kon of 377000 M⁻¹ s⁻¹ were found for B16 in this work. A Kd of 49.4 nM, a koff of 0.0232 s⁻¹ and a kon of 470000 M⁻¹ s⁻¹ were found for B17 in this work. A Kd of 44.9 nM, a koff of 0.0171 s⁻¹ and a kon of 381000 M⁻¹ s⁻¹ were found for B18 in this work. A Kd of 10.9 nM, a koff of 0.00558 s⁻¹ and a kon of 514000 M⁻¹ s⁻¹ were found for B19 in this work. A Kd of 71.5 nM, a koff of 0.0297 s⁻¹ and a kon of 416000 M⁻¹ s⁻¹ were found for B20 in this work. A Kd of 3.97 nM, a koff of 0.00268 s⁻¹ and a kon of 675000 M⁻¹ s⁻¹ were found for B21 in this work. A Kd of 28 nM, a koff of 0.0116 s⁻¹ and a kon of 413000 M⁻¹ s⁻¹ were found for B22 in this work. A Kd of 7.21 nM, a koff of 0.00341 s⁻¹ and a kon of 473000 M⁻¹ s⁻¹ were found for B23 in this work. A Kd of 8.03 nM, a koff of 0.00254 s⁻¹ and a kon of 316000 M⁻¹ s⁻¹ were found for B24 in this work.
